Source: US20170210813A1
pIC50, pKd: −log10 of the molar value. Blank lines part the entries; values can stand above or below the substance they belong to.

Experiments:
[1] = molecular target: full length human PDGFR-beta on HEK293 cells (human) (UniProt P09619); experiment: cell-based or functional assay
[2] = molecular target: Macaca fascicularis PDGFRb.mmh (Macaca fascicularis); experiment: SPR, mAb captured, 25 C
[3] = molecular target: hPDGFRb.mmh (human) (UniProt P09619); experiment: SPR, mAb captured, 25 C
hPDGFRb.mmh (human), sequence (P09619 other isoform, or with tags, fused parts or gaps): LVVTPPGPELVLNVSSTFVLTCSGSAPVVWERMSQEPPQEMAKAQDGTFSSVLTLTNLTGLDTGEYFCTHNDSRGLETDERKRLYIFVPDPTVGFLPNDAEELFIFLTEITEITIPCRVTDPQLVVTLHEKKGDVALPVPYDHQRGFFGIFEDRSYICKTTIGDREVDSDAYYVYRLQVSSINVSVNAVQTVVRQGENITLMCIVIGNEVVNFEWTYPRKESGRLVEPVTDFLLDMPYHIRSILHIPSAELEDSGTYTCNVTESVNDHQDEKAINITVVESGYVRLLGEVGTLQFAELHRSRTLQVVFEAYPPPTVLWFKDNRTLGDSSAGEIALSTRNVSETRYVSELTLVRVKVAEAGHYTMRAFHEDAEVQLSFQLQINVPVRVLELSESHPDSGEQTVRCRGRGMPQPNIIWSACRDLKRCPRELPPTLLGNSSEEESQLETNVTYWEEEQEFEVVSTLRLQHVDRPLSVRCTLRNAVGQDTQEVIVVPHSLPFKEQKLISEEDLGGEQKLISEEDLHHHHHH

[4] = molecular target: human PDGFRb.hFc (human); experiment: SPR, mAb captured, 25 C
[5] = molecular target: Macaca fascicularis PDGFRb.mmh (Macaca fascicularis); experiment: SPR, mAb captured, 37 C
[6] = molecular target: hPDGFRb.mmh (human) (UniProt P09619); experiment: SPR, mAb captured, 37 C
[7] = molecular target: human PDGFRb.hFc (human); experiment: SPR, mAb captured, 37 C
[8] = molecular target: hPDGFRb.mmh (human) (UniProt P09619); experiment: blocking ELISA, biot-hPDGFRb.mmh to coated PDGF-BB
[9] = molecular target: hPDGFRb.mmh (human) (UniProt P09619); experiment: blocking ELISA, biot-hPDGFRb.mmh to coated PDGF-BB; average of three experiments
[10] = molecular target: hPDGFRb.mmh (human) (UniProt P09619); experiment: Octet BLI cross-competition, 25 C; hPDGFRb.mmh on anti-Penta-His tips pre-saturated with mAb-1 H4H3099S (row 6)
[11] = molecular target: hPDGFRb.mmh (human) (UniProt P09619); experiment: Octet BLI cross-competition, 25 C; hPDGFRb.mmh on anti-Penta-His tips pre-saturated with mAb-1 H4H3107S (row 7)
[12] = molecular target: hPDGFRb.mmh (human) (UniProt P09619); experiment: Octet BLI cross-competition, 25 C; hPDGFRb.mmh on anti-Penta-His tips pre-saturated with mAb-1 H4H3305N (row 8)
[13] = molecular target: hPDGFRb.mmh (human) (UniProt P09619); experiment: Octet BLI cross-competition, 25 C; hPDGFRb.mmh on anti-Penta-His tips pre-saturated with mAb-1 H4H3310N (row 9)
[14] = molecular target: hPDGFRb.mmh (human) (UniProt P09619); experiment: Octet BLI cross-competition, 25 C; hPDGFRb.mmh on anti-Penta-His tips pre-saturated with mAb-1 Control I (row 1); self-competition

Macaca fascicularis PDGFRb.mmh (Macaca fascicularis), sequence (chain, as listed by the source): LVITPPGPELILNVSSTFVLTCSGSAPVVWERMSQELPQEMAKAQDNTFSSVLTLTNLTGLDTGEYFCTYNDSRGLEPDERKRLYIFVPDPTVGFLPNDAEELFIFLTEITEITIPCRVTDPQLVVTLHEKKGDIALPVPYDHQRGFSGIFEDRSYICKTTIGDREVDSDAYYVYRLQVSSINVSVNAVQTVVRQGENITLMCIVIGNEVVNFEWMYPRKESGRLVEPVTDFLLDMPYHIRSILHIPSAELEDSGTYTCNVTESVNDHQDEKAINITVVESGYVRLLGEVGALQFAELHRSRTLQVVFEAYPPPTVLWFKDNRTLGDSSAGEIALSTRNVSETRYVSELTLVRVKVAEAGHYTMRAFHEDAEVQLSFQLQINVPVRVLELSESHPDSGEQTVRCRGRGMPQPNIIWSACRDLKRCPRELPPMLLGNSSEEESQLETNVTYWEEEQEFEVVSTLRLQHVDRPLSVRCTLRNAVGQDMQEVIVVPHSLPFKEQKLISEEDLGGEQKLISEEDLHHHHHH
full length human PDGFR-beta on HEK293 cells (human), sequence (P09619 33-1106 limits assumed): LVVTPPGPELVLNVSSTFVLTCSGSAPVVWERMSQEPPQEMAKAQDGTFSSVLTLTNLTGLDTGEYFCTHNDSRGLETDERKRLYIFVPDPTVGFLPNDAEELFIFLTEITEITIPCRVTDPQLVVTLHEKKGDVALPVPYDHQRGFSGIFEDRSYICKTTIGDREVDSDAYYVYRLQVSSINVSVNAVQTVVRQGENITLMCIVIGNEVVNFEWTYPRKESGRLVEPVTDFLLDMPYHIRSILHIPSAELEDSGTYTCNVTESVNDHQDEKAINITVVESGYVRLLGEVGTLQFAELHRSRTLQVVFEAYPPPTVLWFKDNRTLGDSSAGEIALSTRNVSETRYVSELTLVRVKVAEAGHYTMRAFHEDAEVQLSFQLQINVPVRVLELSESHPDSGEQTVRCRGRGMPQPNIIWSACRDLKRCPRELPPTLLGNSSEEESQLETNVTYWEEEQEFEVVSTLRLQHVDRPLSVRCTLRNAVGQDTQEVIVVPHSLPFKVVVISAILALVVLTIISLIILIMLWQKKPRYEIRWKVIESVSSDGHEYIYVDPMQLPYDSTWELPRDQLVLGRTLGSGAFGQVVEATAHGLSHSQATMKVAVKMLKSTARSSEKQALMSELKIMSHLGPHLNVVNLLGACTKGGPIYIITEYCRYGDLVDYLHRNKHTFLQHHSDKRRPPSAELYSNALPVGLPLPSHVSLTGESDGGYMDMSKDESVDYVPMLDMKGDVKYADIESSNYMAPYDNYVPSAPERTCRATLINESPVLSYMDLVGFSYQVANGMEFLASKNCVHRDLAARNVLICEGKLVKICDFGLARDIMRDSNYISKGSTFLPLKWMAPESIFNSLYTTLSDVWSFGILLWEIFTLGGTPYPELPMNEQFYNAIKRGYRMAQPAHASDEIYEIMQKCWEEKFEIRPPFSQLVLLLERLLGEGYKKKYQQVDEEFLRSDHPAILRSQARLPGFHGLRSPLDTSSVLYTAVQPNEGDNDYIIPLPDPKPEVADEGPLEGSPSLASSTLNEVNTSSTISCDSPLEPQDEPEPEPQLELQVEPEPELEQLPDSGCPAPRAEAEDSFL
Control I (antibody), sequence (VH): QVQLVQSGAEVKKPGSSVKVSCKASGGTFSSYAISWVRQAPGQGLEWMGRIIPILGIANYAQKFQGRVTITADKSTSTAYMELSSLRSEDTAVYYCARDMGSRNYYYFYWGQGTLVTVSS
Control I (antibody), sequence (VL): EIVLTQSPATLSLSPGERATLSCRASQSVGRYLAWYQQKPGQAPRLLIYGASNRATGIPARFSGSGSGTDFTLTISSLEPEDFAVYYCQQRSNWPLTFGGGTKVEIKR

IC50, blocking PDGF-BB (250 pM) activation, SRE-luciferase [1]: 1.8e-10 M | IC50, blocking PDGF-DD (400 pM) activation, SRE-luciferase [1]: 1.8e-10 M | Percent Internalization (Relative to Control I) [1]: 100% | pKd [2]: 8.09 | koff [2]: 0.00243 s⁻¹ | kon [2]: 302000 M⁻¹ s⁻¹ | t1/2 [2]: 5 min | pKd [3]: 7.90 | koff [3]: 0.00349 s⁻¹ | kon [3]: 277000 M⁻¹ s⁻¹ | t1/2 [3]: 3 min | pKd [4]: 9.56 | koff [4]: 0.00015 s⁻¹ | kon [4]: 539000 M⁻¹ s⁻¹ | t1/2 [4]: 77 min | pKd [5]: 7.70 | koff [5]: 0.00982 s⁻¹ | kon [5]: 489000 M⁻¹ s⁻¹ | t1/2 [5]: 1.2 min | pKd [6]: 7.49 | koff [6]: 0.0146 s⁻¹ | kon [6]: 450000 M⁻¹ s⁻¹ | t1/2 [6]: 0.8 min | pKd [7]: 9.57 | koff [7]: 0.000217 s⁻¹ | kon [7]: 804000 M⁻¹ s⁻¹ | t1/2 [7]: 53 min | % Maximum Blocking [8]: 92% | pIC50 [9]: 9.47 | Response of mAb-2 Binding to hPDGFRβ.mmh Pre-Complexed with mAb-1 (nm) [10]: 0.34 nm | Response of mAb-2 Binding to hPDGFRβ.mmh Pre-Complexed with mAb-1 (nm) [11]: 0.32 nm | Response of mAb-2 Binding to hPDGFRβ.mmh Pre-Complexed with mAb-1 (nm) [12]: 0.34 nm | Response of mAb-2 Binding to hPDGFRβ.mmh Pre-Complexed with mAb-1 (nm) [13]: 0.33 nm | Response of mAb-2 Binding to hPDGFRβ.mmh Pre-Complexed with mAb-1 (nm) [14]: 0.05 nm
Substance: Control I (antibody)

Percent Internalization (Relative to Control I) [1]: 4%
Substance: Isotype Ctrl (antibody)
